Results taken from article PMC9482650, “Quantitative fragmentomics allow affinity mapping of interactomes” (Nature Communications, 2022).
Substitutions are numbered along the chain they refer to.

T1: ARHGEF11, O15085
T1 sequence (O15085 42-136, limits assumed, looked up): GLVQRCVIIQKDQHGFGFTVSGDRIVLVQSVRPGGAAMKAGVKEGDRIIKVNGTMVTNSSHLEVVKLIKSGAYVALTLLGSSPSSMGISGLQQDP

T2: DFNB31_1, Q9P202
T2 sequence (Q9P202 135-233, limits assumed, looked up): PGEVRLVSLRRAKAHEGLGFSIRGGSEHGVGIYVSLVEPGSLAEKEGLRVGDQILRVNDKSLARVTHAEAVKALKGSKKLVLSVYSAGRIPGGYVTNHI

T3: DFNB31_3, Q9P202
T3 sequence (Q9P202 811-907, limits assumed, looked up): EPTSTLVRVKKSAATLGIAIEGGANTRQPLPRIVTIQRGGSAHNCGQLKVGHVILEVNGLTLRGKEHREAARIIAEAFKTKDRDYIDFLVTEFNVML

T4: DLG3_3, Q92796
T4 sequence (Q92796 374-475, limits assumed, looked up): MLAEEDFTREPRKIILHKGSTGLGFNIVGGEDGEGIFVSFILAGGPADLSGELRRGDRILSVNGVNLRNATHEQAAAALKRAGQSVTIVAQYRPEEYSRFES

T5: GRIP1_3, Q9Y3R0
T5 sequence (Q9Y3R0 247-346, limits assumed, looked up): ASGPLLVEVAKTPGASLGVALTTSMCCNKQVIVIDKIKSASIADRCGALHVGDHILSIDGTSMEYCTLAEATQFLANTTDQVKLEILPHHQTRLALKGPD

T6: GRIP1_4, Q9Y3R0
T6 sequence (Q9Y3R0 467-571, limits assumed, looked up): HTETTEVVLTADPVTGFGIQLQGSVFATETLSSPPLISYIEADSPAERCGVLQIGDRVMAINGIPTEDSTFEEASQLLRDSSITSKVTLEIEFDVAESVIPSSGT

T7: HTRA3, P83110
T7 sequence (P83110 354-453, limits assumed, looked up): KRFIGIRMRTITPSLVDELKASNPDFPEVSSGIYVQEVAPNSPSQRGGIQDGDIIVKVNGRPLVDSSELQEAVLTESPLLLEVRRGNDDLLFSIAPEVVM

T8: LIN7B, Q9HAP6
T8 sequence (Q9HAP6 88-185, limits assumed, looked up): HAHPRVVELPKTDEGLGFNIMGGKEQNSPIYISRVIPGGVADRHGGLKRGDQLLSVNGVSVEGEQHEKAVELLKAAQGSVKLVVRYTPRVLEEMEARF

T9: LIN7C, Q9NUP9
T9 sequence (Q9NUP9 88-185, limits assumed, looked up): T8 sequence (Q9HAP6 88-185, limits assumed, looked up) with A2S, D13E, V35I, V40I, Q65H, S79K, R89K, A96S

T10: MPP7, Q5T2T1
T10 sequence (Q5T2T1 134-230, limits assumed, looked up): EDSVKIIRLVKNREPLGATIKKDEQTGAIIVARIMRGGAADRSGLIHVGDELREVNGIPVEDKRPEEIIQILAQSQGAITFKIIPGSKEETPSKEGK

T11: PDZRN3_1, Q9UPQ7
T11 sequence (Q9UPQ7 244-349, limits assumed, looked up): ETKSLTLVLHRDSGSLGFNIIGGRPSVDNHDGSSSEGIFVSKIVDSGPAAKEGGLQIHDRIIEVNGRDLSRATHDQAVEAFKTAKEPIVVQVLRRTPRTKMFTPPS

T12: SIPA1L2, Q9P2F8
T12 sequence (Q9P2F8 945-1036, limits assumed, looked up): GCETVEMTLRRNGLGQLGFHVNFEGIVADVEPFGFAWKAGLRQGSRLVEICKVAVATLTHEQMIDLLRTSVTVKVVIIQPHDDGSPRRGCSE

T13: SNTA1, Q13424
T13 sequence (Q13424 82-180, limits assumed, looked up): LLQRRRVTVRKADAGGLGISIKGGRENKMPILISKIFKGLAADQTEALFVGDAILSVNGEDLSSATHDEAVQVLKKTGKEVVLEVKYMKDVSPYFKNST


Molecular target: T1, ARHGEF11, O15085
Assay: holdup assay
Set-up: key: below the threshold = too weak to quantify, mostly under pKd 3.1 to 4
Settings: plain residues with an end cap or a label only (N-terminal biotin on a linker: ado-ado)

Row | pKd | Binder
1 | below the threshold | GNDPDRGTSI [GRID2, O43424]

Molecular target: CASK, O14936
Assay: holdup assay
Set-up: key: below the threshold = too weak to quantify, mostly under pKd 3.1 to 4
Settings: plain residues with an end cap or a label only (N-terminal biotin on a linker: ado-ado)

Sequence of CASK, O14936 (O14936 487-570): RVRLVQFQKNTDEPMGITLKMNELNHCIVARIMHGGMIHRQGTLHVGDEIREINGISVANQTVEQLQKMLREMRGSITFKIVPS

Row | pKd | Binder
2 | below the threshold | GNDPDRGTSI [GRID2, O43424]

Molecular target: T2, DFNB31_1, Q9P202
Assay: holdup assay
Set-up: key: below the threshold = too weak to quantify, mostly under pKd 3.1 to 4
Settings: plain residues with an end cap or a label only (N-terminal biotin on a linker: ado-ado)

Row | pKd | Binder
3 | 4.46 | GNDPDRGTSI [GRID2, O43424]

Molecular target: T3, DFNB31_3, Q9P202
Assay: holdup assay
Set-up: key: below the threshold = too weak to quantify, mostly under pKd 3.1 to 4
Settings: plain residues with an end cap or a label only (N-terminal biotin on a linker: ado-ado)

Row | pKd | Binder
4 | below the threshold | GNDPDRGTSI [GRID2, O43424]

Molecular target: T4, DLG3_3, Q92796
Assay: holdup assay
Set-up: key: below the threshold = too weak to quantify, mostly under pKd 3.1 to 4
Settings: plain residues with an end cap or a label only (N-terminal biotin on a linker: ado-ado)

Row | pKd | Binder
5 | below the threshold | GNDPDRGTSI [GRID2, O43424]

Molecular target: DLG4_2, P78352
Assay: holdup assay
Set-up: key: below the threshold = too weak to quantify, mostly under pKd 3.1 to 4
Settings: plain residues with an end cap or a label only (N-terminal biotin on a linker: ado-ado)

Sequence of DLG4_2, P78352 (P78352 155-259): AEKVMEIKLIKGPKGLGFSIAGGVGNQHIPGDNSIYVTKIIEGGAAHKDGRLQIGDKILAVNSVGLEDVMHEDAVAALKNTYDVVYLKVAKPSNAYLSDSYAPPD

Row | pKd | Binder
6 | below the threshold | GNDPDRGTSI [GRID2, O43424]

Molecular target: FRMPD4, Q14CM0
Assay: holdup assay
Set-up: key: below the threshold = too weak to quantify, mostly under pKd 3.1 to 4
Settings: plain residues with an end cap or a label only (N-terminal biotin on a linker: ado-ado)

Sequence of FRMPD4, Q14CM0 (Q14CM0 67-160): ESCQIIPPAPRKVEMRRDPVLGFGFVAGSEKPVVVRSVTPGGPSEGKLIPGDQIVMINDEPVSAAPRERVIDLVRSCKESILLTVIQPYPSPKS

Row | pKd | Binder
7 | below the threshold | GNDPDRGTSI [GRID2, O43424]

Molecular target: GIPC2, Q8TF65
Assay: holdup assay
Set-up: key: below the threshold = too weak to quantify, mostly under pKd 3.1 to 4
Settings: plain residues with an end cap or a label only (N-terminal biotin on a linker: ado-ado)

Sequence of GIPC2, Q8TF65 (Q8TF65 112-203): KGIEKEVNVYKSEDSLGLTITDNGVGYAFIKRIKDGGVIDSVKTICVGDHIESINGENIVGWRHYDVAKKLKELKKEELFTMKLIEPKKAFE

Row | pKd | Binder
8 | below the threshold | GNDPDRGTSI [GRID2, O43424]

Molecular target: GOPC, Q9HD26
Assay: holdup assay
Set-up: key: below the threshold = too weak to quantify, mostly under pKd 3.1 to 4
Settings: plain residues with an end cap or a label only (N-terminal biotin on a linker: ado-ado)

Row | pKd | Binder
9 | below the threshold | GNDPDRGTSI [GRID2, O43424]

Molecular target: GORASP1, Q9BQQ3
Assay: holdup assay
Set-up: key: below the threshold = too weak to quantify, mostly under pKd 3.1 to 4
Settings: plain residues with an end cap or a label only (N-terminal biotin on a linker: ado-ado)

Sequence of GORASP1, Q9BQQ3 (Q9BQQ3 1-208): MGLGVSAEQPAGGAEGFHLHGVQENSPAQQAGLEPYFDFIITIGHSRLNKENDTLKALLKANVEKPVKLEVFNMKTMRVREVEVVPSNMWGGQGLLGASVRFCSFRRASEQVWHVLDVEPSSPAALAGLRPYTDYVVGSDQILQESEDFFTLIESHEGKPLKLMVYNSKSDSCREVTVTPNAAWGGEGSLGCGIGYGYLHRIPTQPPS

Row | pKd | Binder
10 | below the threshold | GNDPDRGTSI [GRID2, O43424]

Molecular target: GORASP2, Q9H8Y8
Assay: holdup assay
Set-up: key: below the threshold = too weak to quantify, mostly under pKd 3.1 to 4
Settings: plain residues with an end cap or a label only (N-terminal biotin on a linker: ado-ado)

Row | pKd | Binder
11 | below the threshold | GNDPDRGTSI [GRID2, O43424]

Molecular target: GRID2IP_1, A4D2P6
Assay: holdup assay
Set-up: key: below the threshold = too weak to quantify, mostly under pKd 3.1 to 4
Settings: plain residues with an end cap or a label only (N-terminal biotin on a linker: ado-ado)

Sequence of GRID2IP_1, A4D2P6 (A4D2P6 1-87): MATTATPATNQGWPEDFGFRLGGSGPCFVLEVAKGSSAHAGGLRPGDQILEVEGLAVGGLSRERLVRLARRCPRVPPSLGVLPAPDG

Row | pKd | Binder
12 | below the threshold | GNDPDRGTSI [GRID2, O43424]

Molecular target: T5, GRIP1_3, Q9Y3R0
Assay: holdup assay
Set-up: key: below the threshold = too weak to quantify, mostly under pKd 3.1 to 4
Settings: plain residues with an end cap or a label only (N-terminal biotin on a linker: ado-ado)

Row | pKd | Binder
13 | below the threshold | GNDPDRGTSI [GRID2, O43424]

Molecular target: T6, GRIP1_4, Q9Y3R0
Assay: holdup assay
Set-up: key: below the threshold = too weak to quantify, mostly under pKd 3.1 to 4
Settings: plain residues with an end cap or a label only (N-terminal biotin on a linker: ado-ado)

Row | pKd | Binder
14 | below the threshold | GNDPDRGTSI [GRID2, O43424]

Molecular target: GRIP2_5, Q9C0E4
Assay: holdup assay
Set-up: key: below the threshold = too weak to quantify, mostly under pKd 3.1 to 4
Settings: plain residues with an end cap or a label only (N-terminal biotin on a linker: ado-ado)

Sequence of GRIP2_5, Q9C0E4 (Q9C0E4 544-642): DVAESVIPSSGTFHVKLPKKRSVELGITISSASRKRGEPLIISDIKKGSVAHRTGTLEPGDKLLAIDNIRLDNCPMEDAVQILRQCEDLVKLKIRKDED

Row | pKd | Binder
15 | below the threshold | GNDPDRGTSI [GRID2, O43424]

Molecular target: T7, HTRA3, P83110
Assay: holdup assay
Set-up: key: below the threshold = too weak to quantify, mostly under pKd 3.1 to 4
Settings: plain residues with an end cap or a label only (N-terminal biotin on a linker: ado-ado)

Row | pKd | Binder
16 | below the threshold | GNDPDRGTSI [GRID2, O43424]

Molecular target: Inadl_2, Q8NI35
Assay: holdup assay
Set-up: key: below the threshold = too weak to quantify, mostly under pKd 3.1 to 4
Settings: plain residues with an end cap or a label only (N-terminal biotin on a linker: ado-ado)

Sequence of Inadl_2, Q8NI35 (Q8NI35 238-335): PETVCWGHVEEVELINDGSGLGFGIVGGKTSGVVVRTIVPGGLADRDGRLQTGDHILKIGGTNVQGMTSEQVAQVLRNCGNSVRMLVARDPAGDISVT

Row | pKd | Binder
17 | below the threshold | GNDPDRGTSI [GRID2, O43424]

Molecular target: T8, LIN7B, Q9HAP6
Assay: holdup assay
Set-up: key: below the threshold = too weak to quantify, mostly under pKd 3.1 to 4
Settings: plain residues with an end cap or a label only (N-terminal biotin on a linker: ado-ado)

Row | pKd | Binder
18 | 3.69 | GNDPDRGTSI [GRID2, O43424]

Molecular target: T9, LIN7C, Q9NUP9
Assay: holdup assay
Set-up: key: below the threshold = too weak to quantify, mostly under pKd 3.1 to 4
Settings: plain residues with an end cap or a label only (N-terminal biotin on a linker: ado-ado)

Row | pKd | Binder
19 | below the threshold | GNDPDRGTSI [GRID2, O43424]

Molecular target: MAGI2_4, Q86UL8
Assay: holdup assay
Set-up: key: below the threshold = too weak to quantify, mostly under pKd 3.1 to 4
Settings: plain residues with an end cap or a label only (N-terminal biotin on a linker: ado-ado)

Sequence of MAGI2_4, Q86UL8 (Q86UL8 772-865): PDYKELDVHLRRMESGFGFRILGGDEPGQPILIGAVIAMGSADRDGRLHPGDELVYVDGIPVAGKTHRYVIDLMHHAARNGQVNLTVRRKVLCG

Row | pKd | Binder
20 | below the threshold | GNDPDRGTSI [GRID2, O43424]

Molecular target: T10, MPP7, Q5T2T1
Assay: holdup assay
Set-up: key: below the threshold = too weak to quantify, mostly under pKd 3.1 to 4
Settings: plain residues with an end cap or a label only (N-terminal biotin on a linker: ado-ado)

Row | pKd | Binder
21 | below the threshold | GNDPDRGTSI [GRID2, O43424]

Molecular target: NHERF4_2, Q86UT5
Assay: holdup assay
Set-up: key: below the threshold = too weak to quantify, mostly under pKd 3.1 to 4
Settings: plain residues with an end cap or a label only (N-terminal biotin on a linker: ado-ado)

Sequence of NHERF4_2, Q86UT5 (Q86UT5 220-308): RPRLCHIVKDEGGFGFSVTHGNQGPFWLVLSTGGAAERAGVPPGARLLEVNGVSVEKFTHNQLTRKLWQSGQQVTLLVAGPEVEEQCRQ

Row | pKd | Binder
22 | below the threshold | GNDPDRGTSI [GRID2, O43424]

Molecular target: T11, PDZRN3_1, Q9UPQ7
Assay: holdup assay
Set-up: key: below the threshold = too weak to quantify, mostly under pKd 3.1 to 4
Settings: plain residues with an end cap or a label only (N-terminal biotin on a linker: ado-ado)

Row | pKd | Binder
23 | 3.88 | GNDPDRGTSI [GRID2, O43424]

Molecular target: T12, SIPA1L2, Q9P2F8
Assay: holdup assay
Set-up: key: below the threshold = too weak to quantify, mostly under pKd 3.1 to 4
Settings: plain residues with an end cap or a label only (N-terminal biotin on a linker: ado-ado)

Row | pKd | Binder
24 | below the threshold | GNDPDRGTSI [GRID2, O43424]

Molecular target: T13, SNTA1, Q13424
Assay: holdup assay
Set-up: key: below the threshold = too weak to quantify, mostly under pKd 3.1 to 4
Settings: plain residues with an end cap or a label only (N-terminal biotin on a linker: ado-ado)

Row | pKd | Binder
25 | below the threshold | GNDPDRGTSI [GRID2, O43424]
